Measured values published in the supplement of paper PMC10126150.
± gives the standard deviation of the averaged measurements.

These sequences were tested on ATP (assay: switch fluorescence ratio, 500 uM ATP over buffer (Cy3 cluster intensity, sum of 5 cycles each) (fold (ratio)); higher = stronger signal-on switching upon ATP binding; sequences stand for … in TCGTCGGCAGCGTCAGATGTGTATAAGAGACAGTTTTTTTTTTTTTTTTTTTTTTTTT…TC). Settings: aptamer strand: ATP DNA aptamer (quencher-CACCTGGGGGAGTATTGCGGAGGAAGG + anchor), 100 nM annealed; ATP concentration: 500 uM.
Method in brief: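 Between each of five buffer/ATP cycles, the flow-cell was stripped with NaOH and re-annealed. Each cycle imaged Cy3-labelled switching-strand clusters, annealed to 100 nM quencher-labelled ATP aptamer on a modified Illumina MiSeq flow-cell, first in selection buffer and then after 15 min with 500 uM ATP at 22 °C. The fluorescence ratio is summed target-cycle over summed buffer-cycle Cy3 intensity per cluster, averaged per switch-domain sequence, with clusters outside 100-1000 RFU excluded.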
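Further: ATP exposure 15 min at 22 °C before imaging.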

Point of comparison: ATTTACATTA, switch fluorescence ratio 1.03 ± 0.021. Against it:
- AAGGGGGGAT — lower, 0.974 ± 0.02
- CGGCTGTGTG — lower, 0.974 ± 0.02
- TAGTCTTTTT — the same, 1.03 ± 0.027
- TATTTTAGGG — within error, 0.985 ± 0.029
- CAGTGCGCGC — within error, 1.01 ± 0.026
- ACTGGGGGAA — lower, 0.97 ± 0.018
- GGTGCAGACG — the same, 1.03 ± 0.018
- TTTTTGTTAG — lower, 0.965 ± 0.024
- TGGGGGAATA — within error, 0.999 ± 0.03
- GCGCACCTTT — within error, 1.01 ± 0.029
- ATAGCAGAAG — within error, 1.06 ± 0.012
- CATAGGGCCA — within error, 1 ± 0.012
- AGCTATAAGG — lower, 0.982 ± 0.021
- CGAAGGGTGT — within error, 0.999 ± 0.024
- GATCGACTGG — the same, 1.029 ± 0.0075
- TAATCATCGA — lower, 0.99 ± 0.017
- AAAGAAAAAT — lower, 1.002 ± 0.005
- GGTATACTTA — within error, 1.04 ± 0.0075
- CTGTTACTGT — within error, 0.986 ± 0.024
- ATGCAGCGGG — within error, 1.01 ± 0.028
- GACGGGCCGT — within error, 1.01 ± 0.021
- AATTGAAGTG — within error, 1.022 ± 0.01
- TTGTTAGCCC — the same, 1.026 ± 0.0026
- TGTGGGGTAT — within error, 1.07 ± 0.045
- ACAGGAAGAT — the same, 1.03 ± 0.035
- AGGCAATTTG — within error, 1 ± 0.071
- GTGGCACG — within error, 1.01 ± 0.025
- CGTCATTGGG — within error, 0.992 ± 0.045
- TCAGGGATT — within error, 1.01 ± 0.057
- TTAGATGGTG — within error, 1.02 ± 0.033
- CGCGGGCCGT — lower, 0.981 ± 0.024
- GATCGCAGCG — within error, 0.986 ± 0.032
- TTGTGAGTGG — lower, 0.976 ± 0.017
- GCGAGCCTCC — higher, 1.3 ± 0.052
- CCGGATACGT — higher, 1.39 ± 0.086
- AGTTATGAGT — within error, 1.01 ± 0.054
- TGCTACAGGA — within error, 1.02 ± 0.0049
- ACGATTGGTA — the same, 1.03 ± 0.092
- CCGGTCTACA — within error, 1.05 ± 0.047
- ATTAAATATC — the same, 1.03 ± 0.024
- TTTGATTTTG — lower, 0.989 ± 0.016
- CGGTAGCTTG — within error, 1 ± 0.019
- TGATGTTAGA — lower, 1.003 ± 0.009
- GGCTACGAGA — within error, 1.04 ± 0.018
- ATATTAGTAT — within error, 1.01 ± 0.038
- CCCCTGTTTT — within error, 1.01 ± 0.022
- GGAGGTTTGG — within error, 0.992 ± 0.044
- AATCAATTGT — within error, 0.978 ± 0.053
- TACAAATCTA — within error, 1 ± 0.036
- TCGGGGTAAG — the same, 1.03 ± 0.015
- GCAGGCTTGG — within error, 1.012 ± 0.0061
- AAGGAAAGGG — within error, 1.21 ± 0.25
- TTTCTGAGTT — within error, 1.01 ± 0.032
- TCTTGGTTTT — within error, 1.02 ± 0.044
- GATAGTAAGT — within error, 0.998 ± 0.077
- ATAAATTTGT — lower, 0.967 ± 0.019
- TGGGATGGAG — within error, 0.976 ± 0.037
- GTTCTTTATC — within error, 0.994 ± 0.018
- ATGGAAAAAG — lower, 0.963 ± 0.046
- TTTCAATATT — the same, 1.03 ± 0.031
- AAGTTTGTCA — lower, 0.955 ± 0.017
- ATATGTGGCT — within error, 0.99 ± 0.054
- TAGGTCATTG — within error, 0.995 ± 0.025
- GGAGTTTAAG — within error, 0.996 ± 0.039
- TTGTTTGTTC — within error, 1.01 ± 0.034
- CAAAGGTACA — within error, 1.008 ± 0.0063
- TGAAAAAGTG — lower, 0.9941 ± 0.0077
- TAGGTTAAAA — lower, 0.9786 ± 0.0041
- ATATTAGGTC — within error, 1.01 ± 0.016
- ATGCACGTAT — the same, 1.03 ± 0.048
- AAATTGGGAT — lower, 0.9636 ± 0.0093
- AAAAGGCCGG — within error, 1.05 ± 0.14
- ACACCTCATA — higher, 1.1 ± 0.039
- GGGGTACCAC — within error, 1.31 ± 0.4
- TGTTGTAAAG — within error, 0.985 ± 0.03
- GGAGGCGTTC — lower, 0.995 ± 0.013
- GTTAGTCTGA — within error, 1.01 ± 0.043
- TTTAGCCGGT — lower, 0.995 ± 0.012
- TCTATTTGTA — lower, 0.9993 ± 0.0071
- TATGGTCTTA — lower, 0.987 ± 0.021
- GCAAAGTGGG — lower, 0.9909 ± 0.0077
- GTGAGGTGCA — within error, 1.01 ± 0.052
- TTTTCCTACG — within error, 2.38 ± 1.6
- AGCAGGCCGG — lower, 0.976 ± 0.025
- GCGCGGGGTA — within error, 0.997 ± 0.029
- AACGTGTGTG — lower, 0.95018 ± 1.6e-05
- TGTTAGGCAA — within error, 1.06 ± 0.034
- ACTTGTTTTT — within error, 0.99 ± 0.033
- GGGGAGTAGT — within error, 1.01 ± 0.024
- GGTGGGTTAG — within error, 1.02 ± 0.032
- GGAGAGTCGG — within error, 0.977 ± 0.035
- ATGTTAGAAA — within error, 1.02 ± 0.032
- GGGCAGGTTC — within error, 1.08 ± 0.085
- ATACGAGATT — within error, 1.009 ± 0.0079
- GTGTAATGGT — the same, 1.03 ± 0.021
- CACCGAGTTT — lower, 0.987 ± 0.02
- AGGGTCTCAT — within error, 1.02 ± 0.022
- TTATTGCATG — lower, 0.96 ± 0.013
- AGGTGACGAG — within error, 1.02 ± 0.014
- CGGACTAAGA — within error, 1.04 ± 0.012
- GGGGGAGTCG — within error, 1.02 ± 0.048
- TATAATTGCG — within error, 0.977 ± 0.036
- ACTGGATCAC — higher, 1.099 ± 0.0035
- GGGTTTCAAG — within error, 1.05 ± 0.04
- GTTTTCTGGA — lower, 0.9988 ± 0.0057
- TTAACCCTTT — within error, 1.02 ± 0.021
- ATTAAGGTGC — higher, 1.31 ± 0.075
- GGAGGGAGGT — within error, 1.01 ± 0.012
- AGTTTTGAAA — lower, 0.9909 ± 0.0021
- TCTGGGGCTG — lower, 0.969 ± 0.016
- CGGTAGGATG — lower, 0.971 ± 0.011
- AGTCTCAAGT — within error, 1.01 ± 0.045
- ACTGTAATTT — higher, 1.18 ± 0.027
- CCGGCGGGGC — within error, 1 ± 0.013
- TTATTATTCA — within error, 1.008 ± 0.0047
- CCAGTGGGGC — within error, 1.01 ± 0.072
- TGGGGTGCTC — within error, 0.998 ± 0.056
- TTTTTTTGCT — within error, 0.994 ± 0.024
- GGGGGGATCC — within error, 0.996 ± 0.044
- TCGCGGCTAT — within error, 1.56 ± 0.61
- TCTGATATAG — lower, 1 ± 0.003
- AGTTCGGCTA — within error, 0.998 ± 0.036
- GAAAAAGTGG — within error, 0.998 ± 0.014
- CATAAGGTTT — within error, 0.971 ± 0.04
- GAATTCGGAC — within error, 1.04 ± 0.016
- TCACGGGCAG — lower, 0.978 ± 0.012
- AAGGTAAGGG — within error, 1.01 ± 0.041
- GACGTTTAAG — lower, 0.977 ± 0.029
- AGGTTATGGG — within error, 1.04 ± 0.082
- TTTGTGGGGC — within error, 1.01 ± 0.042
- GGGAGGGTGT — higher, 1.09 ± 0.02
- TTTTATTCGG — lower, 0.9614 ± 0.0095
- TTTATAGGCG — within error, 0.987 ± 0.023
- TTTATAGGTG — within error, 1.14 ± 0.089
- TTGTTAAATA — lower, 0.98 ± 0.011
- CCTTAGATTA — within error, 1.01 ± 0.031
- CGCGTTGAAA — within error, 1.038 ± 0.0035
- ATAATGGGGA — within error, 1 ± 0.018
- ATCGGGAATT — within error, 1.009 ± 0.0044
- TGCTCAATGA — lower, 0.9737 ± 0.0075
- TTGGTGTTAG — lower, 0.973 ± 0.031
- TCCCTTAGAG — within error, 1.037 ± 0.0024
- GGTTTGTTGT — lower, 0.972 ± 0.022
- ACCCGAAGGC — within error, 1.08 ± 0.043
- CCGTTAGTAA — higher, 3.13 ± 0.46
- CCCACCGTTG — higher, 1.17 ± 0.03
- CAATAGGATG — within error, 1.012 ± 0.0067
- GGATGGGGTC — lower, 0.975 ± 0.02
- GGCAATTAGG — within error, 1.04 ± 0.048
- GGGGCAGGGT — the same, 1.03 ± 0.064
- GGATGAGTGC — within error, 0.99 ± 0.023
- TGATTACTCA — the same, 1.03 ± 0.021
- CTTGAAAGAT — lower, 0.99786 ± 0.00087
- GACAAAAGGT — the same, 1.03 ± 0.013
- CCAGAGAGCC — within error, 1.04 ± 0.028
- GCAAACGGGG — within error, 1.07 ± 0.041
- TGTAAAAGGA — within error, 1.01 ± 0.021
- GGACAGGTTT — lower, 0.9784 ± 0.0034
- TTTTACGGGG — within error, 1.02 ± 0.03
- GTTAAATCTT — within error, 1 ± 0.042
- TTTCGATTCT — lower, 0.978 ± 0.029
- TCGGGTTGAC — within error, 1.02 ± 0.025
- TTTAAGTCT — within error, 0.984 ± 0.095
- CATGGGCAGC — within error, 0.997 ± 0.016
- TTAGTTTAAG — within error, 0.999 ± 0.017
- TTATGGGAAC — lower, 0.97391 ± 0.00081
- GCGAAAAAAG — lower, 0.99907 ± 0.00052
- TTTCTCGTTG — lower, 0.9908 ± 0.0074
- TGTTGATTGT — lower, 0.983 ± 0.013
- CCCGTATATC — higher, 2.72 ± 0.44
- ATTTTGATTT — within error, 1 ± 0.028
- TCATGGTTG — within error, 1.01 ± 0.01
- CCGAATTATA — within error, 2.04 ± 1.3
- AAGGGGTGTA — within error, 0.985 ± 0.04
- TTAGCTGCGG — lower, 0.9951 ± 0.0042
- TTTCATATTT — the same, 1.03 ± 0.014
- ACGTGGTTGA — within error, 1.05 ± 0.026
- GATATTGTTA — within error, 1 ± 0.029
- CGTTAAGTTC — within error, 0.993 ± 0.029
- AAAGTTATGT — within error, 1 ± 0.045
- CTCGTAGCAG — higher, 1.17 ± 0.013
- TAAGGGGTAG — within error, 0.994 ± 0.052
- GAGTAAGGTA — within error, 1.02 ± 0.024
- CTTTAATGTC — within error, 1 ± 0.025
- TCTTTTCAGC — within error, 0.992 ± 0.045
- GGCGTAAAAG — within error, 1.01 ± 0.038
- AGCCTTTTTC — within error, 1.08 ± 0.091
- GAGTCGAGGG — lower, 0.961 ± 0.017
- AACGGCGCCA — lower, 0.983 ± 0.025
- GTTAATGTCC — lower, 0.994 ± 0.014
- CTTAGGGAGC — within error, 0.969 ± 0.085
- AGAGGAGTGC — within error, 0.958 ± 0.056
- AGCTGACCGA — higher, 1.083 ± 0.0037
- CGATTGCATT — higher, 1.27 ± 0.045
- AGGGTGATTA — within error, 1.01 ± 0.018
- CCGGAATCAT — higher, 1.127 ± 0.00097
- TTTTATTTAT — within error, 1.02 ± 0.053
- AGGGTCATCT — within error, 1.012 ± 0.002
- CTAGCTGTAG — within error, 1.04 ± 0.03
